What all share (test): semi-native SDS-PAGE with anti-HA immunoblot
In general terms: Immunoblotting shows a protein as a band on a membrane.

The target of test [1] is BnGLP8:HA (Brassica napus).
Test [2] addresses BnGLP12.1:HA (Brassica napus).
In test [3] the target is BnGLP3.1:HA (Brassica napus).
Test [4] concerns the target BnGLP3.2:HA (Brassica napus).
Test [5] deals with BnGLP12.2:HA (Brassica napus).

Consider five substances from publication PMC3444267.

In turn, BnGLP8:HA (natural protein) gave a stoichiometry N in test [1] of 6.
In turn, BnGLP12.1:HA (natural protein) came in with a stoichiometry N in test [2] of 6.
The substance BnGLP3.1:HA (natural protein) showed a stoichiometry N in test [3] of 6.
In test [4], BnGLP3.2:HA (natural protein) came in with a stoichiometry N of 6.
Turning to BnGLP12.2:HA (natural protein), the stoichiometry N in test [5] is 6.

Usually stoichiometry N stands for the number of molecules, sites or subunits per partner or assembly.
